For data set [1], the system named is p53 null thymocytes. Description: cell viability in mouse thymocytes, p53 null. The class given is cell-based, mice. Particulars: high doses, 24 hours, annexin V/PI.
In data set [2] the target is T1, Mdm2 (1-125) (Homo sapiens, UniProt Q00987).
T1 construct: Mdm2 (1-125) and Mdm4 (1-125) were ligated into the GST fusion expression vector pGEX-6P-1; GST (N, cleaved yes); made in house; host or cells: E. coli BL21 DE3
Description: competitive fluorescence polarization/anisotropy, apparent Kd against Mdm2. The data set is classed as binding. The protocol: (§1) The cells expressing the GST fusion constructs were grown in LB medium at 37° C. to an OD600 of ˜0.6 and induction was started with 1 mM IPTG and carried out overnight at room temperature. Cells were harvested by centrifugation and the cell pellets were re-suspended in 50 mM Tris pH 8.0, 10% sucrose and were then sonicated. The sonicated sample was centrifuged for 60 mins at 17,000 g at 4° C. […] The column was then further washed by 6 volumes of wash buffer. Mdm2 and Mdm4 were then purified from the column by cleavage with Precission (GE Lifesciences) protease. 10 units of precission protease, in one column volume of PBS with 1 mM DTT buffer, were injected onto the column. The cleavage reaction was allowed to proceed overnight at 4° C. The cleaved protein was then eluted of the column with wash buffer. Protein fractions were analyzed with SDS page gel and concentrated using a Centricon (3.5 kDa MWCO) concentrator, Millipore. Mdm2 and Mdm4 protein samples were then dialyzed into a buffer solution containing 20 mM Bis-Tris, pH 6.5, 0.05M NaCl with 1 mM DTT and loaded onto a monoS column pre-equilibrated in buffer A (20 mM Bis-Tris, pH 6.5, 1 mM DTT). The column was then washed in 6 column volumes of buffer A and bound protein was eluted with a linear gradient of 1M NaCL over 25 column volumes. Protein fractions were analyzed with SDS page gel and concentrated using a Centricon (3.5 kDa MWCO) concentrator from Millipore.
(§2) Apparent Kd values were determined for a variety of molecules via competitive fluorescence anisotropy experiments. […] The competing molecules were then titrated against complex of the FAM labelled peptide and protein. Apparent Kd values were determined by fitting the experimental data to the equations shown below:
(§3) [L]st and [L]t denote labelled ligand and total unlabelled ligand input concentrations, respectively. Kd2 is the dissociation constant of the interaction between the unlabelled ligand and the protein. In all competitive types of experiments, it is assumed that [P]t>[L]st, otherwise considerable amounts of free labelled ligand would always be present and would interfere with measurements. […] The FAM-labelled peptide were dissolved in DMSO at 1 mM and diluted into experimental buffer. Readings were carried out with a Envision Multilabel Reader (PerkinElmer). […] All titrations were carried out in triplicate. Curve-fitting was carried out using Prism 4.0 (GraphPad).
Background: Polarisation of emitted light reports the rotation of a fluorescent probe.

Data set [3] deals with T2, Mdm4 (1-125) (Homo sapiens, UniProt O15151).
T2 construct: Mdm4 (1-125) were ligated into the GST fusion expression vector pGEX-6P-1; GST (N, cleaved yes); made in house; host or cells: E. coli BL21 DE3
T2 sequence (O15151 1-125): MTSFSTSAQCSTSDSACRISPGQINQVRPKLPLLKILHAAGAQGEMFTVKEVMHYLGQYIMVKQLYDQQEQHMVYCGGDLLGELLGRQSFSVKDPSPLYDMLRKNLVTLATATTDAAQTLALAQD
The data set is described as follows: competitive fluorescence polarization/anisotropy, apparent Kd against Mdm4. The data set is classed as binding. The protocol:
as §1, §2, §3

For data set [4], the system named is p53 responsive LacZ reporter gene in T22 cell line. Description: T22 p53 β-galactosidase based reporter assay. The class given is cell-based, murine. The conditions noted are these: 18 hours, DMEM with 10% FBS. The protocol: T22 cells, which were stably transfected with a p53 responsive […] reporter, were seeded into 96-well plate at a cell density of 8000 cells per well. […] Measurements were carried out using a Safire II multiplate reader (TECAN). Experiments were carried out independently twice.

Data set [5] has as its target T3, Mdm4 (1-125) (human, UniProt O15151 1-125).
T3 construct: range 1-125; also called MDMX; Hdm4
T3 sequence (looked up): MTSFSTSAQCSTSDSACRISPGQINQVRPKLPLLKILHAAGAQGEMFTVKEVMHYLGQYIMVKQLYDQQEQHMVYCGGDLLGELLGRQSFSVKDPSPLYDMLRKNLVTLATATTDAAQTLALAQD
The data set is described as follows: apparent Kd, competitive fluorescence polarization; displacement of FAM-…-NH2 from Mdm4 (1-125).

The target in data set [6] is T4, Mdm2 (1-125) (human, UniProt Q00987 1-125).
T4 construct: range 1-125; also called Hdm2
Description: apparent Kd, competitive fluorescence polarization; displacement of FAM-…-NH2 from Mdm2 (1-125).

Data set [7] has as its target T3, Mdm4 (1-125). The data set is described as follows: apparent Kd, competitive fluorescence polarization; displacement of FAM-…-NH2 from Mdm4 (1-125). This is another data set of the same source.
In data set [8] the target is T4, Mdm2 (1-125). The data set is described as follows: apparent Kd, competitive fluorescence polarization; displacement of FAM-…-NH2 from Mdm2 (1-125). The source holds these as a separate data set.

Like-named read-outs stand apart in the source and are kept apart here. Where a SMILES comes first, the peptide text is derived from it. Bridges are numbered along the chain shown (N, C = ends). [ ]: non-standard residue; d: D form. Trp(6-Cl) = N[C@@H](Cc1c[nH]c2cc(Cl)ccc12)C(=O)O; dTrp(6-Cl) = N[C@H](Cc1c[nH]c2cc(Cl)ccc12)C(=O)O; R8 = C=CCCCCCC[C@@](C)(N)C(=O)O; S5 = C=CCCC[C@](C)(N)C(=O)O

T4 sequence (Q00987 1-125 limits assumed): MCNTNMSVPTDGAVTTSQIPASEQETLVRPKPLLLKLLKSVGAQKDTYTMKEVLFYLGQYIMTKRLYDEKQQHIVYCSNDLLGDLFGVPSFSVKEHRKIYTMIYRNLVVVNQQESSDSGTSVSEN
T1 sequence (Q00987 1-125): as the sequence (Q00987 1-125 limits assumed) above

With `COc1ccc(C2=N[C@@H](c3ccc(Cl)cc3)[C@@H](c3ccc(Cl)cc3)N2C(=O)N2CCNC(=O)C2)c(OC(C)C)c1` [nutlin, reference compound], in data set [1], the “apoptosis in p53 null thymocytes” value was “caused apoptosis in p53 null thymocytes”.
Regarding `CC(=O)N[C@H](C(=O)N[C@@H](CO)C(=O)N[C@@H](Cc1ccccc1)C(=O)N[C@]1(C)CCCCCCC=CCCC[C@@](C)(C(N)=O)NC(=O)[C@H](CC(C)C)NC(=O)[C@H](CC(C)C)NC(=O)[C@H](CC(N)=O)NC(=O)[C@H](Cc2c[nH]c3ccccc23)NC(=O)[C@H](Cc2ccc(O)cc2)NC(=O)[C@H](CCC(=O)O)NC1=O)[C@@H](C)O` [sMTide-01, Ac-^1TSFXEYWNLLX^11-NH2] (Ac-TSF[R8]EYWNLL[S5]-NH2; staple 4-11), the “increase in Kd against Mdm2 in comparison to unstapled counterpart” value in data set [2] (stapled vs unstapled peptide) is “approximately 2 fold”. The “increase in Kd against Mdm4 in comparison to unstapled counterpart” value in data set [3] (stapled vs unstapled peptide) was found to be 4 fold. Also, the “p53 transcriptional activity in T22 p53 reporter assay” value (shortened to “p53 transcriptional activity”) in data set [4] is “little activity”.
Regarding `CC(=O)N[C@H](C(=O)N[C@@H](CO)C(=O)N[C@@H](Cc1ccccc1)C(=O)N[C@]1(C)CCCCCCC=CCCC[C@@](C)(C(N)=O)NC(=O)[C@H](CC(C)C)NC(=O)[C@H](CC(C)C)NC(=O)[C@H](C)NC(=O)[C@@H](Cc2c[nH]c3cc(Cl)ccc23)NC(=O)[C@H](Cc2ccc(O)cc2)NC(=O)[C@H](CCC(=O)O)NC1=O)[C@@H](C)O` [sMTide-02B, Ac-^1TSFXEY(D-6-Cl)WALLX^11-NH2], in data set [3] (apparent Kd, competitive fluorescence polarization, Mdm4 75 nM, FAM peptide 50 nM), the “Mdm4 Kd” value is “attenuated”. Further, in data set [4], the “p53 transcriptional activity” value was “negligible activity”.
Regarding `CC(=O)N[C@@H](CO)C(=O)N[C@@H](Cc1ccccc1)C(=O)N[C@]1(C)CCCCCCC=CCCC[C@@](C)(C(N)=O)NC(=O)[C@H](CC(C)C)NC(=O)[C@H](CC(C)C)NC(=O)[C@H](C)NC(=O)[C@H](Cc2c[nH]c3ccccc23)NC(=O)[C@H](Cc2ccc(O)cc2)NC(=O)[C@H](CCC(=O)O)NC1=O` [sMTide-04, Ac-^2SFXEYWALLX^11-NH2] (Ac-SF[R8]EYWALL[S5]-NH2; staple 3-10), in data set [2] (comparison of apparent Kds), the “preference between Mdm2 and Mdm4 in binding” value was “interacted more tightly with Mdm4 than with Mdm2”.
As to `CC(=O)N[C@H](C(=O)N[C@@H](CO)C(=O)N[C@@H](Cc1ccccc1)C(=O)N[C@]1(C)CCCCCCC=CCCC[C@@](C)(C(N)=O)NC(=O)[C@H](CC(C)C)NC(=O)[C@H](CC(C)C)NC(=O)[C@H](Cc2ccccc2)NC(=O)[C@H](Cc2c[nH]c3ccccc23)NC(=O)[C@H](Cc2ccc(O)cc2)NC(=O)[C@H](CCC(=O)O)NC1=O)[C@@H](C)O` [sMTide-07, Ac-^1TSFXEYWFLLX^11-NH2] (Ac-TSF[R8]EYWFLL[S5]-NH2; staple 4-11), in data set [4], the “p53 transcriptional activity” value was “diminish the ability of sMTide-07 to induce p53, compared to sMTide-06”.

B1: sMTide-02B (peptide)
peptide: Ac-TSF[R8]EY[dTrp(6-Cl)]ALL[S5]-NH2
modifications: staple 4-11
notes: also called Ac-TSFXEY(D-6-Cl)WALLX-NH2; D-isomer
With B1, in data set [5], the Kd was determined as 2160 nM.

B2: sMTide-05 (peptide)
peptide: Ac-TSF[R8]EYWKLL[S5]-NH2
modifications: staple 4-11
SMILES: CC(=O)N[C@H](C(=O)N[C@@H](CO)C(=O)N[C@@H](Cc1ccccc1)C(=O)N[C@]1(C)CCCCCCC=CCCC[C@@](C)(C(N)=O)NC(=O)[C@H](CC(C)C)NC(=O)[C@H](CC(C)C)NC(=O)[C@H](CCCCN)NC(=O)[C@H](Cc2c[nH]c3ccccc23)NC(=O)[C@H](Cc2ccc(O)cc2)NC(=O)[C@H](CCC(=O)O)NC1=O)[C@@H](C)O
notes: also called Ac-TSFXEYWKLLX-NH2
Turning to B2, the values for the Kd in data set [6] and in data set [7] were 26.3 nM and 29.9 nM, respectively.

B3: sMTide-07 (peptide)
peptide: Ac-TSF[R8]EYWFLL[S5]-NH2
modifications: staple 4-11
SMILES: CC(=O)N[C@H](C(=O)N[C@@H](CO)C(=O)N[C@@H](Cc1ccccc1)C(=O)N[C@]1(C)CCCCCCC=CCCC[C@@](C)(C(N)=O)NC(=O)[C@H](CC(C)C)NC(=O)[C@H](CC(C)C)NC(=O)[C@H](Cc2ccccc2)NC(=O)[C@H](Cc2c[nH]c3ccccc23)NC(=O)[C@H](Cc2ccc(O)cc2)NC(=O)[C@H](CCC(=O)O)NC1=O)[C@@H](C)O
notes: also called Ac-TSFXEYWFLLX-NH2
On to B3, for which the values for the Kd in data set [6] and in data set [7] were 175 nM and 394 nM, respectively.

B4: sMTide-06 (peptide)
peptide: Ac-TSF[R8]EYWYLL[S5]-NH2
modifications: staple 4-11
SMILES: CC(=O)N[C@H](C(=O)N[C@@H](CO)C(=O)N[C@@H](Cc1ccccc1)C(=O)N[C@]1(C)CCCCCCC=CCCC[C@@](C)(C(N)=O)NC(=O)[C@H](CC(C)C)NC(=O)[C@H](CC(C)C)NC(=O)[C@H](Cc2ccc(O)cc2)NC(=O)[C@H](Cc2c[nH]c3ccccc23)NC(=O)[C@H](Cc2ccc(O)cc2)NC(=O)[C@H](CCC(=O)O)NC1=O)[C@@H](C)O
notes: also called Ac-TSFXEYWYLLX-NH2
Turning to B4, the values for the Kd in data set [6] and in data set [7] were 128 nM and 328 nM, respectively.

B5: sMTide-02A (peptide)
peptide: Ac-TSF[R8]EY[Trp(6-Cl)]ALL[S5]-NH2
modifications: staple 4-11
notes: also called Ac-TSFXEY(L-6-Cl)WALLX-NH2; L-isomer
On to B5, for which, in data set [5], the Kd worked out at 1360 nM.

B6: MTide-01 (peptide)
peptide: Ac-TSFAEYWNLLS-NH2
notes: Linear phage-derived peptide
Regarding B6, the Kd in data set [8] was found to be 46.3 nM; in data set [5] it was 33.2 nM.

B7: sMTide-04 (peptide)
peptide: Ac-SF[R8]EYWALL[S5]-NH2
modifications: staple 3-10
SMILES: CC(=O)N[C@@H](CO)C(=O)N[C@@H](Cc1ccccc1)C(=O)N[C@]1(C)CCCCCCC=CCCC[C@@](C)(C(N)=O)NC(=O)[C@H](CC(C)C)NC(=O)[C@H](CC(C)C)NC(=O)[C@H](C)NC(=O)[C@H](Cc2c[nH]c3ccccc23)NC(=O)[C@H](Cc2ccc(O)cc2)NC(=O)[C@H](CCC(=O)O)NC1=O
notes: also called Ac-SFXEYWALLX-NH2
With B7, the values for the Kd in data set [6] and in data set [7] were 104 nM and 63 nM, respectively.

The record behind these values is US20150246946A1, “PEPTIDES AND METHODS FOR TREATING CANCER” (AGENCY FOR SCIENCE, TECHNOLOGY AND RESEARCH, priority 2012, published 2015).
